How the values were obtained:
Experiment in all cases: cell-based or functional assay
[1] = target: Hemagglutinin (HA) of Influenza A virus A/Parma/24/09 (Brisbane-like) (oseltamivir-resistant) H1N1 (Influenza A virus A/Parma/24/09 H1N1)
[2] = target: Hemagglutinin (HA) of Influenza A virus A/Solomon 3/2006 H1N1 (inactivated subunits, vaccine) (Influenza A virus A/Solomon 3/2006 H1N1)
[3] = target: Hemagglutinin (HA) of Influenza A virus A/Wisconsin/67/2005 H3N2 (inactivated subunits, vaccine) (Influenza A virus A/Wisconsin/67/2005 H3N2)

Substance	HI titre [1] [pM]	HI titre [2] [fM]	HI titre [3] [fM]
Lactoferrin from bovine milk (bLf) (from UniProt P24627 20-708)	6000	5000	300
… (SEQ ID NO: 1), bLf C-lobe peptide 418-429	1.4	46.5	23.2
… (SEQ ID NO: 2), bLf C-lobe peptide 506-522	1.4	46.5	11.6

Source: US20140322196A1
